{"source": "paper PMC8809517", "about": "“Cofactor-independent RNA editing by a synthetic S-type PPR protein”", "key": {"[1]": {"system": "GFP-9S motif 4 KD (synthetic construct)", "assay": "HRP pulldown", "details": "lysate, HRP: 50 mM Tris pH 8, 150 mM NaCl, 1 mM bME, 50 ug/ml BSA, 3 ug/ml yeast RNA, 0.5% heparin, 2 nM RNA, ITC (25 C) and FP: Tris pH 8, 200 mM KCl, 5% glycerol …"}, "[2]": {"system": "TRX-AviTag-9S-S2 (synthetic construct)", "assay": "HRP pulldown", "details": "HRP: 50 mM Tris pH 8, 150 mM NaCl, 1 mM bME, 50 ug/ml BSA, 3 ug/ml yeast RNA, 0.5% heparin, 2 nM RNA; ITC (25 C) and FP: Tris pH 8, 200 mM KCl, 5% glycerol …"}, "[3]": {"system": "GFP-9S motif 4 LD (synthetic construct)", "assay": "HRP pulldown", "details": "lysate, HRP: 50 mM Tris pH 8, 150 mM NaCl, 1 mM bME, 50 ug/ml BSA, 3 ug/ml yeast RNA, 0.5% heparin, 2 nM RNA, ITC (25 C) and FP: Tris pH 8, 200 mM KCl, 5% glycerol …"}, "[4]": {"system": "TRX-9S-S2 (synthetic construct (Selaginella-type S motif consensus))", "assay": "HRP pulldown", "details": "HRP: 50 mM Tris pH 8, 150 mM NaCl, 1 mM bME, 50 ug/ml BSA, 3 ug/ml yeast RNA, 0.5% heparin, 2 nM RNA; ITC (25 C) and FP: Tris pH 8, 200 mM KCl, 5% glycerol …"}, "[5]": {"system": "TRX-9P-S2 (synthetic construct)", "assay": "HRP pulldown", "details": "HRP: 50 mM Tris pH 8, 150 mM NaCl, 1 mM bME, 50 ug/ml BSA, 3 ug/ml yeast RNA, 0.5% heparin, 2 nM RNA; ITC (25 C) and FP: Tris pH 8, 200 mM KCl, 5% glycerol …"}, "[6]": {"system": "GFP-9S motif 4 ID (synthetic construct)", "assay": "HRP pulldown", "details": "lysate; HRP: 50 mM Tris pH 8, 150 mM NaCl, 1 mM bME, 50 ug/ml BSA, 3 ug/ml yeast RNA, 0.5% heparin, 2 nM RNA; ITC (25 C) and FP: Tris pH 8, 200 mM KCl, 5% glycerol …"}, "[7]": {"system": "GFP-9S motif 4 TD (synthetic construct)", "assay": "HRP pulldown", "details": "HRP: 50 mM Tris pH 8, 150 mM NaCl, 1 mM bME, 50 ug/ml BSA, 3 ug/ml yeast RNA, 0.5% heparin, 2 nM RNA; ITC (25 C) and FP: Tris pH 8, 200 mM KCl, 5% glycerol …"}, "[8]": {"system": "GFP-9S (synthetic construct)", "assay": "HRP pulldown", "details": "HRP: 50 mM Tris pH 8, 150 mM NaCl, 1 mM bME, 50 ug/ml BSA, 3 ug/ml yeast RNA, 0.5% heparin, 2 nM RNA; ITC (25 C) and FP: Tris pH 8, 200 mM KCl, 5% glycerol …"}, "[9]": {"system": "TRX-9S-E2 (synthetic construct)", "assay": "MST", "details": "HRP: 50 mM Tris pH 8, 150 mM NaCl, 1 mM bME, 50 ug/ml BSA, 3 ug/ml yeast RNA, 0.5% heparin, 2 nM RNA; ITC (25 C) and FP: Tris pH 8, 200 mM KCl, 5% glycerol …"}, "[10]": {"system": "TRX-9S-S2 (synthetic construct (Selaginella-type S motif consensus))", "assay": "fluorescence polarization", "details": "HRP: 50 mM Tris pH 8, 150 mM NaCl, 1 mM bME, 50 ug/ml BSA, 3 ug/ml yeast RNA, 0.5% heparin, 2 nM RNA; ITC (25 C) and FP: Tris pH 8, 200 mM KCl, 5% glycerol …"}, "[11]": {"system": "TRX-9S-S2 (synthetic construct (Selaginella-type S motif consensus))", "assay": "ITC", "details": "HRP: 50 mM Tris pH 8, 150 mM NaCl, 1 mM bME, 50 ug/ml BSA, 3 ug/ml yeast RNA, 0.5% heparin, 2 nM RNA; ITC (25 C) and FP: Tris pH 8, 200 mM KCl, 5% glycerol …"}, "[12]": {"system": "TRX-9P-S2 (synthetic construct)", "assay": "ITC", "details": "HRP: 50 mM Tris pH 8, 150 mM NaCl, 1 mM bME, 50 ug/ml BSA, 3 ug/ml yeast RNA, 0.5% heparin, 2 nM RNA; ITC (25 C) and FP: Tris pH 8, 200 mM KCl, 5% glycerol …"}, "9S-S2 PPR [13]": {"biological_target": "T1, 9S-S2 PPR (synthetic construct)", "T1 chain": "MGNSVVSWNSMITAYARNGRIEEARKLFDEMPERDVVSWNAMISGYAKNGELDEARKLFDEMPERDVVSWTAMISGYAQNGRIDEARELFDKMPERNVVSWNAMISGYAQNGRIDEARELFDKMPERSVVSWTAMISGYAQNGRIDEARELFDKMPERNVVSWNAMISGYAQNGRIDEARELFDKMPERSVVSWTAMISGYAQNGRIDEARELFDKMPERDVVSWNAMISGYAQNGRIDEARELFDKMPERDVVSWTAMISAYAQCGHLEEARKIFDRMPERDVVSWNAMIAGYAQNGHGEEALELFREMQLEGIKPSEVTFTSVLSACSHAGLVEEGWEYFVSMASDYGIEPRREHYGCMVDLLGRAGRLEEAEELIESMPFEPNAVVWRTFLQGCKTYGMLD", "assay": "high-throughput RNA pulldown on Ni-NTA beads; HRP: 50 mM Tris pH 8, 150 mM NaCl, 1 mM beta-mercaptoethanol, 50 ug/ml BSA, 3 ug/ml yeast RNA, 0.5% heparin; ITC and FP: Tris pH 8, 200 mM KCl, 5% glycerol; MST: 50 mM Tris pH 8, 200 mM NaCl, 1 mM DTT, BSA, heparin, 0.05% Tween 20", "details": "protein: recombinant; tags: N-terminal TRX-His; label: 5' Cy5"}, "9P-S2": {"biological_target": "T2, 9P-S2 (synthetic construct)", "T2 chain": "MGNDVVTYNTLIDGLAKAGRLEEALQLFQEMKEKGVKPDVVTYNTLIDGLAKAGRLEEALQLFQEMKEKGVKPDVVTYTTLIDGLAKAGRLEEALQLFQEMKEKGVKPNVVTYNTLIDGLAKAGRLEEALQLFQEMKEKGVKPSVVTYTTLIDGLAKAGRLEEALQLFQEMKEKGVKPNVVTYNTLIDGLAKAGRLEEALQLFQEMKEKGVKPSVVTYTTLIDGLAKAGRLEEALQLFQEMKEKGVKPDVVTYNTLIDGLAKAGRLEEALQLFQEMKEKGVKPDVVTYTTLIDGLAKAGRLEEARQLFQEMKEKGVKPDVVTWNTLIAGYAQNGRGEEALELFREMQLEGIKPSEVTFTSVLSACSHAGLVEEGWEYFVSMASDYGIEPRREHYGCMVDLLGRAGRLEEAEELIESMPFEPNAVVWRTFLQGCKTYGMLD", "assay": "isothermal titration calorimetry; HRP: 50 mM Tris pH 8, 150 mM NaCl, 1 mM beta-mercaptoethanol, 50 ug/ml BSA, 3 ug/ml yeast RNA, 0.5% heparin; ITC and FP: Tris pH 8, 200 mM KCl, 5% glycerol; MST: 50 mM Tris pH 8, 200 mM NaCl, 1 mM DTT, BSA, heparin, 0.05% Tween 20", "details": "protein: recombinant; tags: N-terminal TRX-His"}, "9S-S2 PPR [14]": {"biological_target": "T1, 9S-S2 PPR", "assay": "isothermal titration calorimetry; HRP: 50 mM Tris pH 8, 150 mM NaCl, 1 mM beta-mercaptoethanol, 50 ug/ml BSA, 3 ug/ml yeast RNA, 0.5% heparin; ITC and FP: Tris pH 8, 200 mM KCl, 5% glycerol; MST: 50 mM Tris pH 8, 200 mM NaCl, 1 mM DTT, BSA, heparin, 0.05% Tween 20", "details": "protein: recombinant; tags: N-terminal TRX-His"}, "9S-S2 PPR [15]": {"biological_target": "T1, 9S-S2 PPR", "assay": "fluorescence polarization; HRP: 50 mM Tris pH 8, 150 mM NaCl, 1 mM beta-mercaptoethanol, 50 ug/ml BSA, 3 ug/ml yeast RNA, 0.5% heparin; ITC and FP: Tris pH 8, 200 mM KCl, 5% glycerol; MST: 50 mM Tris pH 8, 200 mM NaCl, 1 mM DTT, BSA, heparin, 0.05% Tween 20", "details": "protein: recombinant; tags: N-terminal TRX-His; label: fluorescein"}, "[16]": {"details": "Kd above 200 nM called unreliable"}}}
{"molecule": "AUUACACGUGA [Cy5-rpoA]", "values": [{"measurement": "Kd", "setting": "[1]", "result": 189, "unit": "nM"}, {"measurement": "Kd", "setting": "[2]", "result": 5.3, "unit": "nM"}, {"measurement": "Kd", "setting": "[3]; [16]", "result": 214, "unit": "nM"}, {"measurement": "Kd", "setting": "[4]", "result": 6.4, "unit": "nM"}, {"measurement": "Kd", "setting": "[5]", "result": 68, "unit": "nM"}, {"measurement": "Kd", "setting": "[6]", "result": 153, "unit": "nM"}, {"measurement": "Kd", "setting": "[7]", "result": 280, "unit": "nM"}, {"measurement": "Kd", "setting": "[8]", "result": 12, "unit": "nM"}, {"measurement": "Kd", "setting": "[9]", "result": 6.8, "unit": "nM"}]}
{"molecule": "AUUACACGUG [rpoA (FP)]", "values": [{"measurement": "Kd", "setting": "[10]", "result": 7.6, "unit": "nM"}]}
{"molecule": "AUUAAACGUGA [IR-rpoA-A]", "values": [{"measurement": "Kd", "setting": "[1]; [16]", "result": 409, "unit": "nM"}, {"measurement": "Kd", "setting": "[3]; [16]", "result": 452, "unit": "nM"}, {"measurement": "Kd", "setting": "[6]", "result": 175, "unit": "nM"}]}
{"molecule": "AUUAUACGUGA [IR-rpoA-U]", "values": [{"measurement": "Kd", "setting": "[1]; [16]", "result": 279, "unit": "nM"}, {"measurement": "Kd", "setting": "[3]", "result": 66.3, "unit": "nM"}, {"measurement": "Kd", "setting": "[6]", "result": 53.5, "unit": "nM"}]}
{"molecule": "UUACACGUG [rpoA footprint (ITC)]", "values": [{"measurement": "Kd", "setting": "[11]", "result": 48, "unit": "nM"}, {"measurement": "Kd", "setting": "[12]", "result": 239, "unit": "nM"}]}
{"molecule": "AUUAGACGUGA [Cy5-rpoA-G]", "values": [{"measurement": "Kd", "setting": "[1]; [16]", "result": 315, "unit": "nM"}, {"measurement": "Kd", "setting": "[3]", "result": 183, "unit": "nM"}, {"measurement": "Kd", "setting": "[6]", "result": 127, "unit": "nM"}, {"measurement": "Kd", "setting": "[7]", "result": 14, "unit": "nM"}]}
{"molecule": "CAGCAACAGAAGCCCAAGCUCAUGGA (ssRNA)", "note": "[Cy5-clpP (clpP1)]", "values": [{"measurement": "binding result", "setting": "9S-S2 PPR [13]", "result": "no binding"}]}
{"molecule": "UUACACGUG (ssRNA)", "note": "[rpoA footprint (ITC)]", "values": [{"measurement": "Kd", "setting": "9P-S2", "result": 239, "unit": "nM"}, {"measurement": "Kd", "setting": "9S-S2 PPR [14]", "result": 48, "unit": "nM"}]}
{"molecule": "AUUACACGUG (ssRNA)", "note": "[rpoA (FP)]", "values": [{"measurement": "Kd", "setting": "9S-S2 PPR [15]", "result": 7.6, "unit": "nM"}]}
